Source: patent US20230192890A1

How the values were obtained:
[1] = target: full-length recombinant mouse PAD4 (mouse) (UniProt Q9Z183); assay: ELISA, mouse PAD4 on plate, antibody 1 ug/mL
[2] = target: full-length recombinant mouse PAD4 (mouse) (UniProt Q9Z183); assay: ELISA, mouse PAD4 on plate, antibody 0.0039063 ug/mL
[3] = target: full-length recombinant mouse PAD4 (mouse) (UniProt Q9Z183); assay: ELISA, mouse PAD4 on plate, antibody 0.25 ug/mL
[4] = target: full-length recombinant mouse PAD4 (mouse) (UniProt Q9Z183); assay: ELISA, mouse PAD4 on plate, antibody 0.0009766 ug/mL
[5] = target: full-length recombinant mouse PAD4 (mouse) (UniProt Q9Z183); assay: ELISA, mouse PAD4 on plate, antibody 0.0002441 ug/mL
[6] = target: full-length recombinant mouse PAD4 (mouse) (UniProt Q9Z183); assay: ELISA, mouse PAD4 on plate, antibody 0.0625 ug/mL
[7] = target: full-length recombinant mouse PAD4 (mouse) (UniProt Q9Z183); assay: ELISA, mouse PAD4 on plate, antibody 6.104E-05 ug/mL
[8] = target: full-length recombinant mouse PAD4 (mouse) (UniProt Q9Z183); assay: ELISA, mouse PAD4 on plate, antibody 0.015625 ug/mL
[9] = target: T1, Ala mutant SEQ ID NO: 39 (human); assay: ELISA, peptide on plate (10 ug/mL)
T1 sequence (peptide): EENMDDQWMQDEAEIGY

[10] = target: T2, Ala mutant SEQ ID NO: 42 (human); assay: ELISA, peptide on plate (10 ug/mL)
T2 sequence (peptide): EENMDDQWMQDEMEIAY

[11] = target: T3, Ala mutant having 3-amino acid substitution, SEQ ID NO: 49 (human); assay: ELISA, peptide on plate (10 ug/mL)
T3 sequence (peptide): EENMDDQWMQDEMEIAA

[12] = target: Ala mutant SEQ ID NO: 34 (human); assay: ELISA, peptide on plate (10 ug/mL)
[13] = target: T4, Ala mutant having 3-amino acid substitution, SEQ ID NO: 44 (human); assay: ELISA, peptide on plate (10 ug/mL)
T4 sequence (peptide): AAAMDDQWMQDEMEIGY

[14] = target: T5, Ala mutant SEQ ID NO: 28 (human); assay: ELISA, peptide on plate (10 ug/mL)
T5 sequence (peptide): EANMDDQWMQDEMEIGY

[15] = target: T6, Ala mutant SEQ ID NO: 31 (human); assay: ELISA, peptide on plate (10 ug/mL)
T6 sequence (peptide): EENMADQWMQDEMEIGY

[16] = target: T7, Ala mutant having 3-amino acid substitution, SEQ ID NO: 48 (human); assay: ELISA, peptide on plate (10 ug/mL)
T7 sequence (peptide): EENMDDQWMQDEAAAGY

[17] = target: T8, Ala mutant having 3-amino acid substitution, SEQ ID NO: 47 (human); assay: ELISA, peptide on plate (10 ug/mL)
T8 sequence (peptide): EENMDDQWMAAAMEIGY

[18] = target: T9, Ala mutant SEQ ID NO: 38 (human); assay: ELISA, peptide on plate (10 ug/mL)
T9 sequence (peptide): EENMDDQWMQDAMEIGY

[19] = target: T10, TA0096 (peptide antigen corresponding to positions 340 to 356 of PAD4) (human); assay: ELISA, peptide on plate (10 ug/mL)
T10 sequence (peptide): EENMDDQWMQDEMEIGY

[20] = target: T11, Ala mutant SEQ ID NO: 30 (human); assay: ELISA, peptide on plate (10 ug/mL)
T11 sequence (peptide): EENADDQWMQDEMEIGY

[21] = target: T12, Ala mutant having 3-amino acid substitution, SEQ ID NO: 46 (human); assay: ELISA, peptide on plate (10 ug/mL)
T12 sequence (peptide): EENMDDAAAQDEMEIGY

[22] = target: T13, Ala mutant SEQ ID NO: 36 (human); assay: ELISA, peptide on plate (10 ug/mL)
T13 sequence (peptide): EENMDDQWMADEMEIGY

[23] = target: Ala mutant SEQ ID NO: 35 (human); assay: ELISA, peptide on plate (10 ug/mL)
[24] = target: T14, Ala mutant SEQ ID NO: 33 (human); assay: ELISA, peptide on plate (10 ug/mL)
T14 sequence (peptide): EENMDDAWMQDEMEIGY

[25] = target: T15, Ala mutant SEQ ID NO: 40 (human); assay: ELISA, peptide on plate (10 ug/mL)
T15 sequence (peptide): EENMDDQWMQDEMAIGY

[26] = target: T16, Ala mutant SEQ ID NO: 29 (human); assay: ELISA, peptide on plate (10 ug/mL)
T16 sequence (peptide): EEAMDDQWMQDEMEIGY

[27] = target: T17, Ala mutant SEQ ID NO: 43 (human); assay: ELISA, peptide on plate (10 ug/mL)
T17 sequence (peptide): EENMDDQWMQDEMEIGA

[28] = target: T18, Ala mutant SEQ ID NO: 37 (human); assay: ELISA, peptide on plate (10 ug/mL)
T18 sequence (peptide): EENMDDQWMQAEMEIGY

[29] = target: T19, Ala mutant SEQ ID NO: 41 (human); assay: ELISA, peptide on plate (10 ug/mL)
T19 sequence (peptide): EENMDDQWMQDEMEAGY

[30] = target: T20, Ala mutant SEQ ID NO: 27 (human); assay: ELISA, peptide on plate (10 ug/mL)
T20 sequence (peptide): AENMDDQWMQDEMEIGY

[31] = target: T21, Ala mutant SEQ ID NO: 32 (human); assay: ELISA, peptide on plate (10 ug/mL)
T21 sequence (peptide): EENMDAQWMQDEMEIGY

full-length recombinant mouse PAD4 (mouse), sequence (Q9Z183 whole entry): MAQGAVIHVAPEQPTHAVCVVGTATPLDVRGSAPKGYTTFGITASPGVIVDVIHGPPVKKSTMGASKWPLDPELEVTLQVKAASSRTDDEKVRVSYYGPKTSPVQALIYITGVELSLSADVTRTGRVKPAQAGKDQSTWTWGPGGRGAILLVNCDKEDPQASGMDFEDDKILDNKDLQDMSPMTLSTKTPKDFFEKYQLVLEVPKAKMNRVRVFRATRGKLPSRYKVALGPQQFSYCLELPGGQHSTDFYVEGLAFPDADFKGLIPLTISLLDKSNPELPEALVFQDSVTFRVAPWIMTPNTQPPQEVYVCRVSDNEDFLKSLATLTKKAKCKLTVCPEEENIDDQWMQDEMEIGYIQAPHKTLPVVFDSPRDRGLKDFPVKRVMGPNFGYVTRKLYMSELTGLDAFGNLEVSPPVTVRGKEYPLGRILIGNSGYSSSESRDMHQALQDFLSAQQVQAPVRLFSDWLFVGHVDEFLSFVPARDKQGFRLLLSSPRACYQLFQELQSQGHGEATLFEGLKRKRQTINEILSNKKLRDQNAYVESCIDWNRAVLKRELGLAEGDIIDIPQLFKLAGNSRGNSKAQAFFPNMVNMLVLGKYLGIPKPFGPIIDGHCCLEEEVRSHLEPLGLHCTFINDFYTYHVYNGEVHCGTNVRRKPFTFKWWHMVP

Substance: anti-dinitrophenyl (DNP) antibody (negative control)
- absorbance 490 nm/630 nm [1]: 0.028 OD
- absorbance 490 nm/630 nm [2]: 0.024 OD
- absorbance 490 nm/630 nm [3]: 0.023 OD
- absorbance 490 nm/630 nm [4]: 0.021 OD
- absorbance 490 nm/630 nm [5]: 0.034 OD
- absorbance 490 nm/630 nm [6]: 0.02 OD
- absorbance 490 nm/630 nm [7]: 0.011 OD
- absorbance 490 nm/630 nm [8]: 0.018 OD
- absorbance 490 nm/630 nm [9]: 0.008 OD
- absorbance 490 nm/630 nm [10]: 0.017 OD
- absorbance 490 nm/630 nm [11]: 0.065 OD
- absorbance 490 nm/630 nm [12]: 0.017 OD
- absorbance 490 nm/630 nm [13]: 0.054 OD
- absorbance 490 nm/630 nm [14]: 0.001 OD
- absorbance 490 nm/630 nm [15]: 0.004 OD
- absorbance 490 nm/630 nm [16]: 0.052 OD
- absorbance 490 nm/630 nm [17]: 0.052 OD
- absorbance 490 nm/630 nm [18]: 0.012 OD
- absorbance 490 nm/630 nm [19]: 0.052 OD
- absorbance 490 nm/630 nm [20]: 0.009 OD
- absorbance 490 nm/630 nm [21]: 0.052 OD
- absorbance 490 nm/630 nm [22]: 0.008 OD
- absorbance 490 nm/630 nm [23]: 0.011 OD
- absorbance 490 nm/630 nm [24]: 0.011 OD
- absorbance 490 nm/630 nm [25]: 0.011 OD
- absorbance 490 nm/630 nm [26]: 0.001 OD
- absorbance 490 nm/630 nm [27]: 0.057 OD
- absorbance 490 nm/630 nm [28]: 0.01 OD
- absorbance 490 nm/630 nm [29]: 0.01 OD
- absorbance 490 nm/630 nm [30]: 0.007 OD
- absorbance 490 nm/630 nm [31]: 0.012 OD
